T1: IsiB^6803 (Synechocystis sp. PCC 6803, UniProt P27319)
T1 construct: gene from colony PCR, pET14b, E. coli BL21(DE3), HisTrap purified; apoprotein for ITC
T1 sequence (P27319 1-170): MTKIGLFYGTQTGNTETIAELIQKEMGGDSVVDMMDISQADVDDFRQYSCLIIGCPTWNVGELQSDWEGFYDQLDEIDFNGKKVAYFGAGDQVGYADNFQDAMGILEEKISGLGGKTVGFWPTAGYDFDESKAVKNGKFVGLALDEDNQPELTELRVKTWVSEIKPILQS

T2: HsCPR^62-241 (Homo sapiens, UniProt P16435)
T2 construct: gene POR; soluble flavodoxin-like (FMN) domain, residues 62-241, pET14b, E. coli BL21(DE3), HisTrap purified; apoprotein for ITC
T2 sequence (P16435 62-241): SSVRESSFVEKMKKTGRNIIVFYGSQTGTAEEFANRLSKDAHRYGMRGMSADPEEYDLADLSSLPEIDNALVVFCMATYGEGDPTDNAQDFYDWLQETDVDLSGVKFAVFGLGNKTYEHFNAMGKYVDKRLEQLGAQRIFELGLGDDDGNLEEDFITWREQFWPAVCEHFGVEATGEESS

T3: CYP2A6 (Homo sapiens, UniProt P11509)
T3 construct: N-terminal Arabidopsis Fd2 transit peptide fusion; transient expression in Nicotiana benthamiana chloroplasts; amplified from E. coli expression construct
T3 sequence (P11509 1-494): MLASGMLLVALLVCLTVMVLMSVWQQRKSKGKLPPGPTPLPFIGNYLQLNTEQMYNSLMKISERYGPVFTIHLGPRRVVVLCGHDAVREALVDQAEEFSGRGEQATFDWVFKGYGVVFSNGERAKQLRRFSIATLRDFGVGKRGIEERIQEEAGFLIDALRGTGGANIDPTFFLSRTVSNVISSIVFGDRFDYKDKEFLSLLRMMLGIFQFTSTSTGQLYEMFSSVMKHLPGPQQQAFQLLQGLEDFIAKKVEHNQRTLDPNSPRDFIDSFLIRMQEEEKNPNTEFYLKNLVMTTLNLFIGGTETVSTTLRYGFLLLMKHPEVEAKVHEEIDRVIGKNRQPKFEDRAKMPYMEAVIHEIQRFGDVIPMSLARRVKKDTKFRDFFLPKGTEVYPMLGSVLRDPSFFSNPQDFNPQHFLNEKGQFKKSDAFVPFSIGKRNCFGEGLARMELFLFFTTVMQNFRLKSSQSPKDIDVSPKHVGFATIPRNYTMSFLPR

T4: spinach FNR (spinach) (UniProt P00455)
T4 sequence: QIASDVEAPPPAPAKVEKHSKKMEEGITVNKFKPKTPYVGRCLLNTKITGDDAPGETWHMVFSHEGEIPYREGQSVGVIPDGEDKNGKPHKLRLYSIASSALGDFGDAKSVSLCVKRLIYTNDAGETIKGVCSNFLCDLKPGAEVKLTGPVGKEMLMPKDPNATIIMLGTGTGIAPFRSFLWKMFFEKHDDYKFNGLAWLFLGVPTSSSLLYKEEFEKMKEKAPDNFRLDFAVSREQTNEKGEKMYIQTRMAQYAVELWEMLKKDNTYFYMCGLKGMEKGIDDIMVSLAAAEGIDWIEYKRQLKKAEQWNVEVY


Legend:
[1] = molecular target: T1, IsiB^6803; assay: isothermal titration calorimetry; type: binding; details: read-out: affinities
[2] = molecular target: T2, HsCPR^62-241; assay: isothermal titration calorimetry; type: binding; details: read-out: affinities
[3] = molecular target: T5, CYP2E1 (Homo sapiens, UniProt P05181); assay: indican formation in infiltrated N. benthamiana leaves, LC-MS; details: co-expressed with tnaA; chloroplast-targeted; product glucosylated to indican
T5 construct: N-terminal Arabidopsis Fd2 transit peptide fusion; transient expression in Nicotiana benthamiana chloroplasts; amplified from E. coli expression construct
T5 sequence (P05181 whole entry, the tested form may be a part): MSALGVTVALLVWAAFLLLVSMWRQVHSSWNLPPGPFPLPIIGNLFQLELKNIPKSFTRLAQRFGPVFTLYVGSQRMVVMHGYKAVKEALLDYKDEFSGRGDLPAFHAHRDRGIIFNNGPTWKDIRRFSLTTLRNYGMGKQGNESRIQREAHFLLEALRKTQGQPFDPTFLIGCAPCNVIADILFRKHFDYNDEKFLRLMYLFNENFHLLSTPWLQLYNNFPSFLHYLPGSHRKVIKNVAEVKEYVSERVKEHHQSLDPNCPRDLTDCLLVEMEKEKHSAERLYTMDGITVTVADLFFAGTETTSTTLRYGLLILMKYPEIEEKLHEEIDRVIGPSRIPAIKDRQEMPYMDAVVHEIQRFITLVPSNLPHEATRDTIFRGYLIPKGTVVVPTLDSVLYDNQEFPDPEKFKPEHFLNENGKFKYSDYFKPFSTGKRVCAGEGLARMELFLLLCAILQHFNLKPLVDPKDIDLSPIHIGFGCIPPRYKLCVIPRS

[4] = molecular target: T3, CYP2A6; assay: as above; details: co-expressed with tnaA; chloroplast-targeted; product glucosylated to indican
[5] = molecular target: T6, tnaA (Escherichia coli, UniProt P0A853); assay: indole accumulation in infiltrated N. benthamiana leaves, UPLC-UV; parameters: species or system Nicotiana benthamiana leaves; details: chloroplast-targeted; endogenous tryptophan
T6 construct: synthetic gene, N-terminal chloroplast transit peptide (Arabidopsis Fd2); transient expression in Nicotiana benthamiana chloroplasts
T6 sequence (P0A853 whole entry): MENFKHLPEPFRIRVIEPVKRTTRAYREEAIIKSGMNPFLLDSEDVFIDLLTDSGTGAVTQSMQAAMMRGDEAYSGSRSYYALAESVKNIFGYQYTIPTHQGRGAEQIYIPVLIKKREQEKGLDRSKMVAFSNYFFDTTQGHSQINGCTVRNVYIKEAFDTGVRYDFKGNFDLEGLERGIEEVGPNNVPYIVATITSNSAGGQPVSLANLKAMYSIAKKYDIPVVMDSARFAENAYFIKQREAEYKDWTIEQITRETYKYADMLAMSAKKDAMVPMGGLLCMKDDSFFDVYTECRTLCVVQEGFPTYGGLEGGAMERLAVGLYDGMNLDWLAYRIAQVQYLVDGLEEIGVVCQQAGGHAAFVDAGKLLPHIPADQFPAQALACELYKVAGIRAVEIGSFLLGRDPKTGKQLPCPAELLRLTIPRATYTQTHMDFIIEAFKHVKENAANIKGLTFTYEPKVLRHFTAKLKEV

[6] = molecular target: T4, spinach FNR (spinach)
[7] = molecular target: T4, spinach FNR (spinach); remark: listed apart in the source

Sequence of AtFd1 (O04090 53-148): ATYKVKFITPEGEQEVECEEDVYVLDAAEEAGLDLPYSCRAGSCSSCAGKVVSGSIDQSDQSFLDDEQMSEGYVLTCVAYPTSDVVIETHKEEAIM

Vmax/KM of NADPH-dependent reduction of the electron carrier by FNR [6]	KM of the electron carrier in NADPH-dependent reduction by FNR (40 nM spinach FNR, carrier 1-100 µM, read by cytochrome c reduction, Michaelis-Menten fit) [7] [µM]	Vmax of NADPH-dependent reduction of the electron carrier by FNR (40 nM spinach FNR, carrier 1-100 µM, read by cytochrome c reduction, Michaelis-Menten fit) (µmol cyt c µmol FNR^-1 s^-1) [7]	Molecule	other results
–	–	–	Cc1cc2nc3c(=O)[nH]c(=O)nc-3n(C[C@H](O)[C@H](O)[C@H](O)COP(=O)(O)O)c2cc1C [FMN]	Kd [1]: 2 nM; Kd [2]: 25.7 nM
–	–	–	c1ccc2[nH]ccc2c1 [indole]	indican formation in infiltrated N. benthamiana leaves, LC-MS [3]: accumulation was considerably higher when any P450 was co-expressed with tnaA; indican formation in infiltrated N. benthamiana leaves, LC-MS [4]: accumulation was considerably higher when any P450 was co-expressed with tnaA
–	–	–	N[C@@H](Cc1c[nH]c2ccccc12)C(=O)O [tryptophan]	indole accumulation in infiltrated N. benthamiana leaves, UPLC-UV [5]: Expression of tnaA alone led to detectable indole accumulation in leaf samples
5.4	21.7	118	AtFd1 (from UniProt O04090 53-148) (natural protein)	decrease of light-driven coumarin 7-hydroxylation by CYP2A B49 in thylakoids (10 µM redox partner) on adding 0.6 µM FNR and 1.6 mM NADP+ [6]: 80%
–	17.7	10	IsiB^6803 (natural protein) MTKIGLFYGTQTGNTETIAELIQKEMGGDSVVDMMDISQADVDDFRQYSCLIIGCPTWNVGELQSDWEGFYDQLDEIDFNGKKVAYFGAGDQVGYADNFQDAMGILEEKISGLGGKTVGFWPTAGYDFDESKAVKNGKFVGLALDEDNQPELTELRVKTWVSEIKPILQS	–
13.6	9.2	125	HsCPR^62-241 (domain or fragment) SSVRESSFVEKMKKTGRNIIVFYGSQTGTAEEFANRLSKDAHRYGMRGMSADPEEYDLADLSSLPEIDNALVVFCMATYGEGDPTDNAQDFYDWLQETDVDLSGVKFAVFGLGNKTYEHFNAMGKYVDKRLEQLGAQRIFELGLGDDDGNLEEDFITWREQFWPAVCEHFGVEATGEESS	–

Reference: publication PMC9890960, “Exploiting photosynthesis-driven P450 activity to produce indican in tobacco chloroplasts” (Frontiers in Plant Science, 2023)
